Results published in paper PMC4458174 (DNA repair, 2015).

T1: mouse Myh (mMyh), His-tagged (mouse, UniProt Q99P21 1-515)
T1 sequence (looked up): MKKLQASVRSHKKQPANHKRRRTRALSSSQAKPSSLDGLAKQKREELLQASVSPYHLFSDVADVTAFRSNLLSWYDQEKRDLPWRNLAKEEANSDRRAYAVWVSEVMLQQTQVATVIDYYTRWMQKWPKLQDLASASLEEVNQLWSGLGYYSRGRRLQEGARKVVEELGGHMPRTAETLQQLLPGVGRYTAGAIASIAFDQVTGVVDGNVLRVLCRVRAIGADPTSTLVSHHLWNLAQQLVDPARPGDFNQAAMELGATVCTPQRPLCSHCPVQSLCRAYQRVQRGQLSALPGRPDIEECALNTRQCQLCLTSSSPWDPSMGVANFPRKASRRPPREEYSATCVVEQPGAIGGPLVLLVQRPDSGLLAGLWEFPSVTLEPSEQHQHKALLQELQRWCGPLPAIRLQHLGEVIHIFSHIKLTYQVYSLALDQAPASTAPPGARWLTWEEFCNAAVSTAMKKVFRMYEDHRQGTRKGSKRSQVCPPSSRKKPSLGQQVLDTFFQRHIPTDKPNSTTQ


Target: T1, mouse Myh (mMyh), His-tagged
Assay: pull-down

binding result	Binder
binds	GST-hHus1N(+) (residues 1-155) (domain or fragment, human, UniProt O60921 1-155, looked up) MKFRAKIVDGACLNHFTRISNMIAKLAKTCTLRISPDKLNFILCDKLANGGVSMWCELEQENFFNEFQMEGVSAENNEIYLELTSENLSRALKTAQNARALKIKLTNKHFPCLTVSVELLSMSSSSRIVTHDIPIKVIPRKLWKDLQEPVVPDPD
binds	GST-hHus1N(-) (residues 1-133) (domain or fragment, human, UniProt O60921 1-133, looked up) MKFRAKIVDGACLNHFTRISNMIAKLAKTCTLRISPDKLNFILCDKLANGGVSMWCELEQENFFNEFQMEGVSAENNEIYLELTSENLSRALKTAQNARALKIKLTNKHFPCLTVSVELLSMSSSSRIVTHDI
binds	GST-tagged hHus1 (wild type) (natural protein, human, UniProt O60921 1-280, looked up) MKFRAKIVDGACLNHFTRISNMIAKLAKTCTLRISPDKLNFILCDKLANGGVSMWCELEQENFFNEFQMEGVSAENNEIYLELTSENLSRALKTAQNARALKIKLTNKHFPCLTVSVELLSMSSSSRIVTHDIPIKVIPRKLWKDLQEPVVPDPDVSIYLPVLKTMKSVVEKMKNISNHLVIEANLDGELNLKIETELVCVTTHFKDLGNPPLASESTHEDRNVEHMAEVHIDIRKLLQFLAGQQVNPTKALCNIVNNKMVHFDLLHEDVSLQYFIPALS
binds	GST-hHus1 K136A (natural protein, human, UniProt O60921 1-280, looked up) MKFRAKIVDGACLNHFTRISNMIAKLAKTCTLRISPDKLNFILCDKLANGGVSMWCELEQENFFNEFQMEGVSAENNEIYLELTSENLSRALKTAQNARALKIKLTNKHFPCLTVSVELLSMSSSSRIVTHDIPIAVIPRKLWKDLQEPVVPDPDVSIYLPVLKTMKSVVEKMKNISNHLVIEANLDGELNLKIETELVCVTTHFKDLGNPPLASESTHEDRNVEHMAEVHIDIRKLLQFLAGQQVNPTKALCNIVNNKMVHFDLLHEDVSLQYFIPALS
binds	GST-hHus1 V137A (natural protein, human, UniProt O60921 1-280, looked up) MKFRAKIVDGACLNHFTRISNMIAKLAKTCTLRISPDKLNFILCDKLANGGVSMWCELEQENFFNEFQMEGVSAENNEIYLELTSENLSRALKTAQNARALKIKLTNKHFPCLTVSVELLSMSSSSRIVTHDIPIKAIPRKLWKDLQEPVVPDPDVSIYLPVLKTMKSVVEKMKNISNHLVIEANLDGELNLKIETELVCVTTHFKDLGNPPLASESTHEDRNVEHMAEVHIDIRKLLQFLAGQQVNPTKALCNIVNNKMVHFDLLHEDVSLQYFIPALS
binds	GST-hHus1C (residues 147-280) (domain or fragment, human, UniProt O60921 147-280, looked up) QEPVVPDPDVSIYLPVLKTMKSVVEKMKNISNHLVIEANLDGELNLKIETELVCVTTHFKDLGNPPLASESTHEDRNVEHMAEVHIDIRKLLQFLAGQQVNPTKALCNIVNNKMVHFDLLHEDVSLQYFIPALS
binds	GST-hHus1N (residues 1-146) (domain or fragment, human, UniProt O60921 1-146, looked up) MKFRAKIVDGACLNHFTRISNMIAKLAKTCTLRISPDKLNFILCDKLANGGVSMWCELEQENFFNEFQMEGVSAENNEIYLELTSENLSRALKTAQNARALKIKLTNKHFPCLTVSVELLSMSSSSRIVTHDIPIKVIPRKLWKDL
